Data taken from PMC7811047.

Molecular target: N-terminal protein A (PA)-Renilla luciferase (RL)-ARFRP1 fusion protein (UniProt Q13795)
Experiment: co-IP

UniProt Q13795, sequence (Q13795 whole entry, the tested form may be a part): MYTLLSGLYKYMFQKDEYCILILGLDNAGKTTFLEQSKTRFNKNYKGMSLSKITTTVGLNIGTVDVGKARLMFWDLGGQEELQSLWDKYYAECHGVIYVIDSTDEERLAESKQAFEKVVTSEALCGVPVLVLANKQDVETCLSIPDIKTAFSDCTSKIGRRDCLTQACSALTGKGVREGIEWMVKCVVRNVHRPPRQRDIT

## V5-firefly luciferase (FL)-tagged VPS35 (from UniProt Q96QK1 1-796) (natural protein)
  fold luciferase activity over control: 2.8 fold
